The record followed here is publication PMC10656227.

The target of assay [1] is collagen IV NC1 domains of the NC1 hexamer from cicada (cicada (Magicicada spp)). The assay can be described thus: SDS-PAGE (SDS resistance of the native hexamer); straight collagenase digest of tissue or animals; SDS-PAGE with 150 mM NaCl; sample at room temperature; Western blot with JK2. A general note: A western blot detects proteins with antibodies after separation by electrophoresis.

Assay [2] shares this target. Put plainly: SDS-PAGE (SDS resistance of the native hexamer); straight collagenase digest of tissue or animals; regular SDS-PAGE without Cl^− supplement; sample at room temperature; Western blot with JK2.
For assay [3], the target named is collagen IV NC1 domains of the NC1 hexamer from bovine kidney (cow (Bos taurus)). The assay can be described thus: SDS-PAGE (SDS resistance of the native hexamer); purified NC1 hexamer; Tris-glycine SDS-PAGE with 150 mM NaCl in running buffer and sample buffer; sample at room temperature, not boiled; Coomassie, TCE or Western blot.
Assay [4] deals with collagen IV NC1 domains of the NC1 hexamer from starlet sea anemone (starlet sea anemone (Nematostella vectensis)). Put plainly: SDS-PAGE (SDS resistance of the native hexamer); partially purified NC1 hexamer (SEC hexamer fraction); SDS-PAGE with 150 mM NaCl; sample at room temperature; Western blot with JK2 or TCE in-gel visualization.
In assay [5] the target is collagen IV NC1 domains of the NC1 hexamer from condylactis anemone (condylactis anemone (Condylactis gigantea)). The description is as above.
The target of assay [6] is collagen IV NC1 domains of the NC1 hexamer from Caenorhabditis elegans (Caenorhabditis elegans). The description is as above.
The target is the same in assay [7]. The assay can be described thus: SDS-PAGE (SDS resistance of the native hexamer); partially purified NC1 hexamer (SEC hexamer fraction); regular SDS-PAGE without Cl^− supplement; sample at room temperature; Western blot with JK2 or TCE in-gel visualization.
Assay [8] concerns the target collagen IV NC1 domains of the NC1 hexamer from horseshoe crab flatworm (horseshoe crab flatworm (Bdelloura candida)). Put plainly: SDS-PAGE (SDS resistance of the native hexamer); partially purified NC1 hexamer (SEC hexamer fraction); SDS-PAGE with 150 mM NaCl; sample at room temperature; Western blot with JK2 or TCE in-gel visualization.
The target in assay [9] is collagen IV NC1 domains of the NC1 hexamer from American lobster (American lobster (Homarus americanus)). Put plainly: SDS-PAGE (SDS resistance of the native hexamer); straight collagenase digest of tissue or animals; SDS-PAGE with 150 mM NaCl; sample at room temperature; Western blot with JK2.
The target is the same in assay [10]. The assay can be described thus: SDS-PAGE (SDS resistance of the native hexamer); straight collagenase digest of tissue or animals; regular SDS-PAGE without Cl^− supplement; sample at room temperature; Western blot with JK2.
Assay [11] concerns the target collagen IV NC1 domains of the NC1 hexamer from moon jellyfish (moon jellyfish (Aurelia aurita)). The assay can be described thus: SDS-PAGE (SDS resistance of the native hexamer); partially purified NC1 hexamer (SEC hexamer fraction); SDS-PAGE with 150 mM NaCl; sample at room temperature; Western blot with JK2 or TCE in-gel visualization.
The target in assay [12] is collagen IV NC1 domains of the NC1 hexamer from brine shrimp (brine shrimp (Artemia salina)). The assay can be described thus: SDS-PAGE (SDS resistance of the native hexamer); straight collagenase digest of tissue or animals; SDS-PAGE with 150 mM NaCl; sample at room temperature; Western blot with JK2.
The target is the same in assay [13]. Put plainly: SDS-PAGE (SDS resistance of the native hexamer); straight collagenase digest of tissue or animals; regular SDS-PAGE without Cl^− supplement; sample at room temperature; Western blot with JK2.
Assay [14] has as its target collagen IV NC1 domains of the NC1 hexamer from comb jelly (comb jelly (Mnemiopsis leidyi)). The assay can be described thus: SDS-PAGE (SDS resistance of the native hexamer); partially purified NC1 hexamer (SEC hexamer fraction); SDS-PAGE with 150 mM NaCl; sample at room temperature; Western blot with JK2 or TCE in-gel visualization.
Assay [15] has the same target. Put plainly: SDS-PAGE (SDS resistance of the native hexamer); partially purified NC1 hexamer (SEC hexamer fraction); regular SDS-PAGE without Cl^− supplement; sample at room temperature; Western blot with JK2 or TCE in-gel visualization.
The target of assay [16] is collagen IV NC1 domains of the NC1 hexamer from Ascaris suum (Ascaris suum). Put plainly: SDS-PAGE (SDS resistance of the native hexamer); purified NC1 hexamer; regular SDS-PAGE without Cl^− supplement; sample at room temperature, not boiled; Coomassie, TCE or Western blot.
For assay [17] the target is unchanged. Put plainly: SDS-PAGE (SDS resistance of the native hexamer); purified NC1 hexamer; Tris-glycine SDS-PAGE with 150 mM NaCl in running buffer and sample buffer; sample at room temperature, not boiled; Coomassie, TCE or Western blot.
The target of assay [18] is collagen IV NC1 domains of the NC1 hexamer from brown planaria (brown planaria (Dugesia tigrina)). The assay can be described thus: SDS-PAGE (SDS resistance of the native hexamer); partially purified NC1 hexamer (SEC hexamer fraction); SDS-PAGE with 150 mM NaCl; sample at room temperature; Western blot with JK2 or TCE in-gel visualization.
The target is the same in assay [19]. Put plainly: SDS-PAGE (SDS resistance of the native hexamer); partially purified NC1 hexamer (SEC hexamer fraction); regular SDS-PAGE without Cl^− supplement; sample at room temperature; Western blot with JK2 or TCE in-gel visualization.
Assay [20] has as its target collagen IV NC1 domains of the NC1 hexamer from marmoset kidney (common marmoset (Callithrix jacchus)). The assay can be described thus: SDS-PAGE (SDS resistance of the native hexamer); partially purified NC1 hexamer (SEC hexamer fraction); SDS-PAGE with 150 mM NaCl; sample at room temperature; Western blot with JK2 or TCE in-gel visualization.
Assay [21] concerns the target collagen IV NC1 domains of the NC1 hexamer from rotifers (rotifer (Brachionus plicatilis)). Described as above.
Assay [22] shares this target. Put plainly: SDS-PAGE (SDS resistance of the native hexamer); partially purified NC1 hexamer (SEC hexamer fraction); regular SDS-PAGE without Cl^− supplement; sample at room temperature; Western blot with JK2 or TCE in-gel visualization.
Assay [23] concerns the target collagen IV NC1 domains of the NC1 hexamer from fruit fly (fruit fly (Drosophila melanogaster)). The assay can be described thus: SDS-PAGE (SDS resistance of the native hexamer); purified NC1 hexamer; regular SDS-PAGE without Cl^− supplement; sample at room temperature, not boiled; Coomassie, TCE or Western blot.
Assay [24] shares this target. Put plainly: SDS-PAGE (SDS resistance of the native hexamer); purified NC1 hexamer; Tris-glycine SDS-PAGE with 150 mM NaCl in running buffer and sample buffer; sample at room temperature, not boiled; Coomassie, TCE or Western blot.
Assay [25] addresses collagen IV NC1 domains of the NC1 hexamer from mouse kidney (mouse (Mus musculus)). Put plainly: SDS-PAGE (SDS resistance of the native hexamer); straight collagenase digest of tissue or animals; SDS-PAGE with 150 mM NaCl; sample at room temperature; Western blot with JK2.

Consider “collagen IV NC1 domains of the NC1 hexamer from cicada (domain or fragment)”, for which the stoichiometry N in [1] and in [2] was 6 throughout.
For the substance “collagen IV NC1 domains of the NC1 hexamer from bovine kidney (domain or fragment)”, the stoichiometry N in assay [3] worked out at 6.
As to “collagen IV NC1 domains of the NC1 hexamer from starlet sea anemone (domain or fragment)”, the stoichiometry N in [4] turned out to be 6.
For “collagen IV NC1 domains of the NC1 hexamer from condylactis anemone (domain or fragment)”, the stoichiometry N in [5] was 6.
Consider “collagen IV NC1 domains of the NC1 hexamer from Caenorhabditis elegans (domain or fragment)”, for which the stoichiometry N in assay [6] and in [7] was 6 throughout.
In turn, “collagen IV NC1 domains of the NC1 hexamer from horseshoe crab flatworm (domain or fragment)” displayed a stoichiometry N in assay [8] of 6.
Regarding “collagen IV NC1 domains of the NC1 hexamer from American lobster (domain or fragment)”, the stoichiometry N in [9] and in [10] was 6 in each case.
Regarding “collagen IV NC1 domains of the NC1 hexamer from moon jellyfish (domain or fragment)”, in [11], the stoichiometry N is 6.
“collagen IV NC1 domains of the NC1 hexamer from brine shrimp (domain or fragment)”: the stoichiometry N in assay [12] and in [13] was 6 throughout.
Turning to “collagen IV NC1 domains of the NC1 hexamer from comb jelly (domain or fragment)”, the stoichiometry N in assay [14] and in assay [15] was 6 each time.
On to “collagen IV NC1 domains of the NC1 hexamer from Ascaris suum (domain or fragment)”, for which the stoichiometry N in assay [16] and in assay [17] was 6 in each case.
As for “collagen IV NC1 domains of the NC1 hexamer from brown planaria (domain or fragment)”, the stoichiometry N in [18] and in assay [19] was 6 throughout.
“collagen IV NC1 domains of the NC1 hexamer from marmoset kidney (domain or fragment)” showed a stoichiometry N in assay [20] of 6.
In the case of “collagen IV NC1 domains of the NC1 hexamer from rotifers (domain or fragment)”, the stoichiometry N in assay [21] and in assay [22] was 6 throughout.
On to “collagen IV NC1 domains of the NC1 hexamer from fruit fly (domain or fragment)”, for which the stoichiometry N in assay [23] and in [24] was 6 in each case.
As for “collagen IV NC1 domains of the NC1 hexamer from mouse kidney (domain or fragment)”, in assay [25], the stoichiometry N is 6.

Broadly, the stoichiometry N is the number of molecules, sites or subunits per partner or assembly.
